In US20030129189A1, “Tumor necrosis factor-gamma” (priority 1994, published 2003):

Experiments:
[1] = target: T1, Fc-fusion form of the extracellular domain of OPG (UniProt O00300 22-401, limits assumed); assay: flow cytometry on HEK293F cells expressing full length TNF-gamma-beta
T1 construct: extracellular domain; not shown: Fc part of the fusion
T1 sequence (looked up): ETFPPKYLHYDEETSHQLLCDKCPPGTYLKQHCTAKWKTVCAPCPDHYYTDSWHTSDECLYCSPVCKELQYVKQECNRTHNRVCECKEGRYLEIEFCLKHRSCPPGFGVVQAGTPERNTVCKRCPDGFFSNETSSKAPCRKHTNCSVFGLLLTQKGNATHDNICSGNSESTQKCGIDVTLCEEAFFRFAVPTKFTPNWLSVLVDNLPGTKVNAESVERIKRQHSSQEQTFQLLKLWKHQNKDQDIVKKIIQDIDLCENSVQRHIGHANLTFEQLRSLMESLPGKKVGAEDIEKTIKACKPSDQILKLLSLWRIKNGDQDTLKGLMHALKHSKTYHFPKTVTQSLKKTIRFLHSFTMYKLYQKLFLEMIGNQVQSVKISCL
Description: (§1) TR6 has been previously described as a decoy receptor (Pitti et al., Nature 396:699-703 (1998); Yu et al., J. Biol. Chem. 274:13733-6 (1999)) capable of competing with Fas and HveA for binding of FasL and LIGHT, respectively.
(§2) One million cells, in 0.1 ml of FACS buffer (PBS, 0.1% BSA, 0.1% NaN₃), were incubated with 0.1-1 microgram of protein or antibody at RT for 15 min. The cells were washed with 3 ml of FACS buffer, reacted with biotinylated primary antibody, and stained with PE-conjugated secondary antibody at RT for 15 min. Cells were then washed again, resuspended in 0.5 microgram/ml of propidium iodide, and live cells were gated and analyzed on a FACScan using the CellQuest software (BD Biosciences).

[2] = target: T2, Fc-fusion form of the extracellular domain of DR6 (UniProt O75509 42-349, limits assumed); assay: as above
T2 construct: extracellular domain; not shown: Fc part of the fusion
T2 sequence (looked up): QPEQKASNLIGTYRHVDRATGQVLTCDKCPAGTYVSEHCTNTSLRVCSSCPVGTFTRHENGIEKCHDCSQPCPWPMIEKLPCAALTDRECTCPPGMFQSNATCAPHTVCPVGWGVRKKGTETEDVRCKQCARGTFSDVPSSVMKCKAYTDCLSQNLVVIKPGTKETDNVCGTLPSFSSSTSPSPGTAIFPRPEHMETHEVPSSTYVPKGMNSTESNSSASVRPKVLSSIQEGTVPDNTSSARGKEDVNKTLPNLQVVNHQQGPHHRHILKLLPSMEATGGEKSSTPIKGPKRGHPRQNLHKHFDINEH
Description: as §1, §2

non-tagged form of TR6 = target: T3, non-tagged form of TR6 (UniProt O95407 30-300); assay: competition flow cytometry on HEK293F cells expressing TNF-gamma-beta; competitor of DR3-Fc
T3 construct: also called DcR3
T3 sequence (looked up): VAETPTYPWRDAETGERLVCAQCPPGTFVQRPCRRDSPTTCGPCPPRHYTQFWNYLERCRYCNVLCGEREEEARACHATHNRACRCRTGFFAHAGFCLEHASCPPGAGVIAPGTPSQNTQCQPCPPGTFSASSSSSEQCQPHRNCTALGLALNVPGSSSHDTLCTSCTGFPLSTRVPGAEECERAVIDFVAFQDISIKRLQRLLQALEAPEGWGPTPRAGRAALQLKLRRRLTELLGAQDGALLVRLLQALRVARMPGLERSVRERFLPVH
Description: as §1, §2

binding result [1]: no binding | binding result [2]: no binding | binding result (non-tagged form of TR6): binds
B1: full length TNF-gamma-beta on the cell surface (HEK293F stable transfectants; transfected cells) (ligand)
chain: MAEDLGLSFGETASVEMLPEHGSCRPKARSSSARWALTCCLVLLPFLAGLTTYLLVSQLRAQGEACVQFQALKGQEFAPSHQQVYAPLRADGDKPRAHLTVVRQTPTQHFKNQFPALHWEHELGLAFTKNRMNYTNKFLLIPESGDYFIYSQVTFRGMTSECSEIRQAGRPNKPDSITVVITKVTDSYPEPTQLLMGTKSVCEVGSNWFQPIYLGAMFSLQEGDKLMVNVSDISLVDYTKEDKTFFGAFLL
notes: also called TNF-gamma-beta expressing cells
